Test results published in US20060205032.

T1: recombinant human STAT1 (Biosource), P42224
T1 chain: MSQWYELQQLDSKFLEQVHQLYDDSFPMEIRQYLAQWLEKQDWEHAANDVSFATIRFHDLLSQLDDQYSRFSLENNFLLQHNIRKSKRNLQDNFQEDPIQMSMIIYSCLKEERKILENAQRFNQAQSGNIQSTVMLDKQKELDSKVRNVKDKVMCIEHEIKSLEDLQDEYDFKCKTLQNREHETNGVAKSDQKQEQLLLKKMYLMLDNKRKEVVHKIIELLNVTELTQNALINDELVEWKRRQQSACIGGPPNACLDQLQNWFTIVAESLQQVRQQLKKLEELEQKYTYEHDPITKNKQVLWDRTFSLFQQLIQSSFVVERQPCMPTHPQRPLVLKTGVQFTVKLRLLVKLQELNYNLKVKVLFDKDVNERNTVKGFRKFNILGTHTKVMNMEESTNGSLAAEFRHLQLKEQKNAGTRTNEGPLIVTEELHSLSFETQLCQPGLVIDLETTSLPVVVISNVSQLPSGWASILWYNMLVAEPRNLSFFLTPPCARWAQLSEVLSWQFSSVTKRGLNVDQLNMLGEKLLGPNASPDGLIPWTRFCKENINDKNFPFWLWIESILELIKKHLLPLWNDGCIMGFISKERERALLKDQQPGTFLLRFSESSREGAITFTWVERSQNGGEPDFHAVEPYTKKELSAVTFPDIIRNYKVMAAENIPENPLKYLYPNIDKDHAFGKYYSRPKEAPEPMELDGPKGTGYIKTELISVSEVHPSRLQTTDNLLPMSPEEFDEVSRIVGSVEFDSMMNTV


Assays:
[1] = target: T1, recombinant human STAT1 (Biosource), …
[2] = target: UbcH5a (human recombinant E2), P51668
Chain of UbcH5a (human recombinant E2), P51668 (P51668 whole entry): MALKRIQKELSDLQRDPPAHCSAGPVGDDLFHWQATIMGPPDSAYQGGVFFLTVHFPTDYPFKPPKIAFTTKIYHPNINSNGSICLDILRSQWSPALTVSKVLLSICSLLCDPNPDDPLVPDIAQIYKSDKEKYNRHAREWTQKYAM

Row | Protein | ubiquitination of STAT1 (ubiquitin transfer assay, Avidin-HRP blot) [1] | ubiquitination of WT-Δ52-hSLIM with different human E2 enzymes (Avidin-HRP blot) [2]
1 | GST-Δ52-hSLIM (protein) MALTVDVAGPAPWGFRITGGRDFHTPIMVTKVAERGKAKDADLRPGDIIVAINGESAEGMLHAEAQSKIRQSPSPLRLQLDRSQATSPGQTNGDSSLEVLATRFQGSVRTYTESQSSLRSSYSSPTSLSPRAGSPFSPPPSSSSLTGEAAISRSMDSEGGSLLLDEDSEVFKMLQENREGRAAPRQSSSFRLLQEALEAEERGGTPAFLPSSLSPQSSLPASRALATPPKLHTCEKCSTSIANQAVRIQEGRYRHPGCYTCADCGLNLKMRGHFWVGDELYCEKHARQRYSAPATLSSRA | WT-Δ52-hSLIM demonstrates E3 ligase activity by transferring ubiquitin to a biologically relevant downstream substrate, STAT1 | WT-A52-hSLIM demonstrates preferential ubiquitination in the presence of UbcH5a
2 | GST-SLIM (bacterially expressed wild-type GST-hSLIM) (protein) MALTVDVAGPAPWGFRITGGRDFHTPIMVTKVAERGKAKDADLRPGDIIVAINGESAEGMLHAEAQSKIRQSPSPLRLQLDRSQATSPGQTNGDSSLEVLATRFQGSVRTYTESQSSLRSSYSSPTSLSPRAGSPFSPPPSSSSLTGEAAISRSFQSLACSPGLPAADRLSYSGRPGSRQAGLGRAGDSAVLVLPPSPGPRSSRPSMDSEGGSLLLDEDSEVFKMLQENREGRAAPRQSSSFRLLQEALEAEERGGTPAFLPSSLSPQSSLPASRALATPPKLHTCEKCSTSIANQAVRIQEGRYRHPGCYTCADCGLNLKMRGHFWVGDELYCEKHARQRYSAPATLSSRA | WT-SLIM mediates the ubiquitination of STAT1 and demonstrates strong E3 ligase activity towards both STAT1 and hSLIM | 
